This assay has as its target KIR3DL1-Fc (UniProt P43629). Kind of assay: SPR; Biacore T200; KIR3DL1-Fc coupled to a series S Protein A chip at ~1000 RU; soluble monomers injected at 0-193 uM (wild type) or 0-234 uM (V97S); contact 300 s, dissociation 700 s; 25 C; HBS-EP+ buffer; 1:1 binding model.

In paper PMC11329236 one finds Kd data, which are given here for one substance.

A word on the Kd: it is the concentration at which binding is half-saturated.

UniProt P43629, sequence (P43629 22-320): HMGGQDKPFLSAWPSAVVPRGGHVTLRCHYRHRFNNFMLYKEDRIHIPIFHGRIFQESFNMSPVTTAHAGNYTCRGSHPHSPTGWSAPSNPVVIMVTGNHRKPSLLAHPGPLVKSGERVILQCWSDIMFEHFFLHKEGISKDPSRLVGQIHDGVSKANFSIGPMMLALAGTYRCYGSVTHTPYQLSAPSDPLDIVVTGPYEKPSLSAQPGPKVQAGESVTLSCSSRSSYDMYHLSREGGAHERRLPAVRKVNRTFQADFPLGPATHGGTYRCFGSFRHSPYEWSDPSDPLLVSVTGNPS

Take “soluble HLA-B*5701 V97S mutant monomer in complex with the TW10 peptide (from UniProt P61769 21-119) (peptide-MHC)”: the dissociation constant Kd was 185 µM.
